Tests used:
[1] = size-exclusion chromatography, zinc- and phenol-free (self-association control)
[2] = target: lectin-purified insulin receptor (isoform B) (UniProt P06213); experiment: receptor-binding assay with lectin-purified insulin receptor

affinity relative to human insulin [2] [%]	Substance	molecular weight by SEC [1]
–	Lys^B28, Pro^B29 (Lispro) insulin	The molecular weight (MW; or molecular mass) of the species was 3.1 kDa
50	Trp^B26, Orn^B29 insulin analogue (ligand)	–

— patent US20200055914A1
